From US20230212549A1, “COMPOUNDS COMPRISING A […] LIGAND AND USE THEREOF” (priority 2021, published 2023)
Bridge positions count the residues as written; N and C are the ends.

T1: D2S (h) (human), P14416
T1 chain: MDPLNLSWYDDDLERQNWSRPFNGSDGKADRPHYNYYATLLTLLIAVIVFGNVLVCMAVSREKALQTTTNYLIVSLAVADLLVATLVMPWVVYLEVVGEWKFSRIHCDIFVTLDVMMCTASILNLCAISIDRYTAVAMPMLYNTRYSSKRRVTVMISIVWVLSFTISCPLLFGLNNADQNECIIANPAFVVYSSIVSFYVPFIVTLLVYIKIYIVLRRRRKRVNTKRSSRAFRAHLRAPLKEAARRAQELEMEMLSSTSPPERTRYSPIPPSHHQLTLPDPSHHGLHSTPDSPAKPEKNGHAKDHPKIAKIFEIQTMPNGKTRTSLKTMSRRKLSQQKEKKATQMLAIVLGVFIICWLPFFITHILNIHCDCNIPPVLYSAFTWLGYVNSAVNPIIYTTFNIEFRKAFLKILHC

T2: A2A (h) (human), P29274
T2 chain: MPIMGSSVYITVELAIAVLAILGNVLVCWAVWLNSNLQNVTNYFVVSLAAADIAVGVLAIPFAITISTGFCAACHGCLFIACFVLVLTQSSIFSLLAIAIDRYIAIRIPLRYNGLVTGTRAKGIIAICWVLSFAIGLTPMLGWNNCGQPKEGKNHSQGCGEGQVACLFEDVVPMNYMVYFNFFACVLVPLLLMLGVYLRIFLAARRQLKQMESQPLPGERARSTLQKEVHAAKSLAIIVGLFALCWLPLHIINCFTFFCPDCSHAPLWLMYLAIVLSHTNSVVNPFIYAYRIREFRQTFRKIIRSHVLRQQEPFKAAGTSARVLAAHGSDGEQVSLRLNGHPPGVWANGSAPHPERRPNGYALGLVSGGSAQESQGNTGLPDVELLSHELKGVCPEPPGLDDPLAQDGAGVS

T3: GR (h) (human), P04150
T3 chain: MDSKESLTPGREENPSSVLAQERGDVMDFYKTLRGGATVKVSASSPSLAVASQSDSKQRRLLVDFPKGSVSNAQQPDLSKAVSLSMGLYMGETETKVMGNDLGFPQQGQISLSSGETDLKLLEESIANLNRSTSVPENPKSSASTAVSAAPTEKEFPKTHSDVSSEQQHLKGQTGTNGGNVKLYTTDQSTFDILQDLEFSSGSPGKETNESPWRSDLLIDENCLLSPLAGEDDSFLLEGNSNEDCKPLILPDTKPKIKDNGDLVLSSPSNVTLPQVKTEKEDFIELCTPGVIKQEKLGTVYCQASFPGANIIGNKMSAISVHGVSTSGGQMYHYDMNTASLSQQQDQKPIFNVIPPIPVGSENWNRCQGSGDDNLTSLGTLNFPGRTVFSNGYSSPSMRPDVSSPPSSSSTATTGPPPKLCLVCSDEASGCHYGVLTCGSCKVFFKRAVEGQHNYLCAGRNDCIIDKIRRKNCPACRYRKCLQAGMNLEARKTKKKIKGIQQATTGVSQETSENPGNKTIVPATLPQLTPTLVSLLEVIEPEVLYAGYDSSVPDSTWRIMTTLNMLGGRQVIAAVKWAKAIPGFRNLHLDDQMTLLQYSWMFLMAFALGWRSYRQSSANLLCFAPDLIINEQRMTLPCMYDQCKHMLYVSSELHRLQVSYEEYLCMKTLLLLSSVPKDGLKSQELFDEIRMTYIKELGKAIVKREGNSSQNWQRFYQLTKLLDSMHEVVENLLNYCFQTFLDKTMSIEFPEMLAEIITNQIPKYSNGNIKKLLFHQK

T4: 5-HT1A (h) (human), P08908
T4 chain: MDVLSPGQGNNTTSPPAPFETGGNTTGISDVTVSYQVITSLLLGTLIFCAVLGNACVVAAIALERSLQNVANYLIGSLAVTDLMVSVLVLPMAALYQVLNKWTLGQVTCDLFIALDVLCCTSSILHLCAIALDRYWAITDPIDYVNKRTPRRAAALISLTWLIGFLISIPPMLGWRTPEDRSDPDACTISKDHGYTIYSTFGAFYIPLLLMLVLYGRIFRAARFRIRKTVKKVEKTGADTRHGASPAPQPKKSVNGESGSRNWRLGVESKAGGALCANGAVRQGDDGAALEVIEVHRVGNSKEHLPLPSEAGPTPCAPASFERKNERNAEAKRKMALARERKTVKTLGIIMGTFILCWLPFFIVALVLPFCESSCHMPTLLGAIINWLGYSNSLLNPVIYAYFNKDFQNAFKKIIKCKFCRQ

T5: CB1 (h) (human), P21554
T5 chain: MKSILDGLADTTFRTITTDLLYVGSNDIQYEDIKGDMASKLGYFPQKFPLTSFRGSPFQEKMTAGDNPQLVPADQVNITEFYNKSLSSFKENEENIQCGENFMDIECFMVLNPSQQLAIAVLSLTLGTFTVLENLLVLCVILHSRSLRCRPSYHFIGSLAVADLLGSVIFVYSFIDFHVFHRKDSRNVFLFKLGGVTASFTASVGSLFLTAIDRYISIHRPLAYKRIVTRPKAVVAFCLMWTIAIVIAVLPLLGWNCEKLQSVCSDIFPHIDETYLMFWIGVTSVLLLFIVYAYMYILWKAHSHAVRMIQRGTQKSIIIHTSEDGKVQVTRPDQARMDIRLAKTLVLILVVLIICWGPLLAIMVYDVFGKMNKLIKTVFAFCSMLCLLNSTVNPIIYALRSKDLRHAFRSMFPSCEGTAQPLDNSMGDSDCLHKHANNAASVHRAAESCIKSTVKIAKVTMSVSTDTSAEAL


How the values were obtained:
Assay in all cases: radioligand displacement (agonist radioligand), 10 µM
[1] = biological target: 5-HT2B (h) (human), P41595; details: remark: other sources report otherwise
[2] = biological target: beta 1 (h) (human), P08588; details: remark: other sources report otherwise
[3] = biological target: mu (MOP) (h) (human), P35372; details: remark: other sources report otherwise
D2S (h) (human), P14416 = biological target: T1, D2S (h) (human), P14416
A2A (h) (human), P29274 = biological target: T2, A2A (h) (human), P29274; details: remark: other sources report otherwise
GR (h) (human), P04150 = biological target: T3, GR (h) (human), P04150; details: remark: other sources report otherwise
[4] = biological target: T4, 5-HT1A (h) (human), P08908; details: remark: other sources report otherwise
[5] = biological target: kappa (h) (KOP) (human), P41145; details: remark: other sources report otherwise
CB1 (h) (human), P21554 = biological target: T5, CB1 (h) (human), P21554; details: remark: other sources report otherwise
V1a (h) (human), P37288 = details: remark: other sources report otherwise
V1a (h) (human), P37288, sequence (P37288 whole entry): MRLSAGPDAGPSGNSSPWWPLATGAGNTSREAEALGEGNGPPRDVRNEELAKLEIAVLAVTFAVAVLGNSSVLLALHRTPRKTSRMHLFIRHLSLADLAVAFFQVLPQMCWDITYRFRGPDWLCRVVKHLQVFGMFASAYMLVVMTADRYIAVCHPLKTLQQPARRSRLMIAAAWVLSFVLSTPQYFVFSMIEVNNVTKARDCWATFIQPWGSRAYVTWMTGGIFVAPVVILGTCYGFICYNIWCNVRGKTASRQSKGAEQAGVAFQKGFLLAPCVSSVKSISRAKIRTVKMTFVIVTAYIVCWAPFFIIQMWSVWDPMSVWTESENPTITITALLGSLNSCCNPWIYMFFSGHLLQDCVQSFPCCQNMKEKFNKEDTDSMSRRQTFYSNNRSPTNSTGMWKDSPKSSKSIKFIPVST

mu (MOP) (h) (human), P35372, sequence (P35372 whole entry): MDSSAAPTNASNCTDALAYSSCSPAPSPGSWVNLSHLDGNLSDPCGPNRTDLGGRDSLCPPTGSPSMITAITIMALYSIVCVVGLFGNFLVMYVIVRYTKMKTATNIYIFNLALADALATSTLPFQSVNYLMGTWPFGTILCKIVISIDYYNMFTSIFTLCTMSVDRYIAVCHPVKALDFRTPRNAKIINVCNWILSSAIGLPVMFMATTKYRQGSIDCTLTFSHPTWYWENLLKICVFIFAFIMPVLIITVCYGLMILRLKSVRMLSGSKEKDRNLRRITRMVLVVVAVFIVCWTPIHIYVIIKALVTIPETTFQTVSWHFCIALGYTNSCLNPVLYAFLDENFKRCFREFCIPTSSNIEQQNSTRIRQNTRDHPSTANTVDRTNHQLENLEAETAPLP
kappa (h) (KOP) (human), P41145, sequence (P41145 whole entry): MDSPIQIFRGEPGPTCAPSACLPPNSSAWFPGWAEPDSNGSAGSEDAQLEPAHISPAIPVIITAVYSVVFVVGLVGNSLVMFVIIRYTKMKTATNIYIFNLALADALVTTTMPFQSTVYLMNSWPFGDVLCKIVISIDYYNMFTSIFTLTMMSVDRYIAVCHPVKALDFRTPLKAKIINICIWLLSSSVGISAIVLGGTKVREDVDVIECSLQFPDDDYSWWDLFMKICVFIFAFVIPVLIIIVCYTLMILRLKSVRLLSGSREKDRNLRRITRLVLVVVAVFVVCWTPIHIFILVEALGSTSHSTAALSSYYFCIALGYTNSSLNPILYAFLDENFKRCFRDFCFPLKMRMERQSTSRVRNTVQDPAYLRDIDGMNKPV
5-HT2B (h) (human), P41595, sequence (P41595 whole entry): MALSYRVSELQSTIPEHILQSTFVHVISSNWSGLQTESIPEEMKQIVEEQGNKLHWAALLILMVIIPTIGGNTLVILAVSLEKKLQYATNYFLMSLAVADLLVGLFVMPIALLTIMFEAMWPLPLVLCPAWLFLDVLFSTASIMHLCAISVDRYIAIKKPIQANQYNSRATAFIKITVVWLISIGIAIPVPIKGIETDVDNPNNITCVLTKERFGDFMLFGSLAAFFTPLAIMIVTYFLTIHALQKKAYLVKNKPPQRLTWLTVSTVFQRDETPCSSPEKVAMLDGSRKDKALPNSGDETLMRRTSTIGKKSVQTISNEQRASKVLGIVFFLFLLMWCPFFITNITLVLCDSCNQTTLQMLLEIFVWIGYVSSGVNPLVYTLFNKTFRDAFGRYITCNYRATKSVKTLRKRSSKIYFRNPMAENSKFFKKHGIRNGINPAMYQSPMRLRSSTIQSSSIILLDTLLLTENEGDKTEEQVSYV
beta 1 (h) (human), P08588, sequence (P08588 whole entry): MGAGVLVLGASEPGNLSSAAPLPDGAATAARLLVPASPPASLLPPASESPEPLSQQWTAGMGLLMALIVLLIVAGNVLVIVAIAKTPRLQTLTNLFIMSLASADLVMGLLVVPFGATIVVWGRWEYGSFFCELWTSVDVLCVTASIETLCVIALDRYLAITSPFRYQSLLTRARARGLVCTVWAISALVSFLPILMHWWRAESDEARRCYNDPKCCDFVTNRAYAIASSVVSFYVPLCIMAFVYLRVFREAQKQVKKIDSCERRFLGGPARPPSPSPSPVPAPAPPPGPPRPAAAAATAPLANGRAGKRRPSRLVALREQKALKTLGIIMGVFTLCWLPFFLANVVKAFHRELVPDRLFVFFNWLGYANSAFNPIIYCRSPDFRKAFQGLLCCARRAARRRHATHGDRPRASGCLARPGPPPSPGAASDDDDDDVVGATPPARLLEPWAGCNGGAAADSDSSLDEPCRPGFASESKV

| Binder | % Inhibition of Specific Binding [1] | % Inhibition of Specific Binding [2] | % Inhibition of Specific Binding [3] | % Inhibition of Specific Binding (D2S (h) (human), P14416) | % Inhibition of Specific Binding (A2A (h) (human), P29274) | % Inhibition of Specific Binding (GR (h) (human), P04150) | % Inhibition of Specific Binding [4] | % Inhibition of Specific Binding [5] | % Inhibition of Specific Binding (CB1 (h) (human), P21554) | % Inhibition of Specific Binding (V1a (h) (human), P37288) |
| --- | --- | --- | --- | --- | --- | --- | --- | --- | --- | --- |
| Hex-CPPTQFCD-NH2 (bridge 1-7; not fully specified (bridges); printed as Hex-[Cys(tMeBn(DOTA-PP))-Pro-Pro-Thr-Gln-Phe-Cys]-Asp-NH2) [Hex-[Cys(tMeBn(DOTA-PP))-Pro-Pro-Thr-Gln-Phe-Cys]-Asp-NH2] | 2% | 4% | 2% | 15% | -4% | -2% | -3% | 7% | 5% | 16% |
| Hex-CPPTQFC-OH (bridge 1-7; not fully specified (bridges); printed as Hex-[Cys(tMeBn(DOTA-AET))-Pro-Pro-Thr-Gln-Phe-Cys]-OH) [Hex-[Cys(tMeBn(DOTA-AET))-Pro-Pro-Thr-Gln-Phe-Cys]-OH] | 3% | -13% | -10% | -7% | -16% | 0% | -5% | 10% | -7% | 1% |
